B1: Azoarcus group I ribozyme (parent)
chain: GUGCCUUGCGCCGGGAAACCACGCAAGGGAUGGUGUCAAAUUCGGCGAAACCUAAGCGCCCGCCCGGGCGUAUGGCAACGCCGAGCCAAGCUUCGGCGCCUGCGCCGAUGAAGGUGUAGAGACUAGACGGCACCCACCUAAGGCAAACGCUAUGGUGAAGGCAUAGUCCAGGGAGUGGCGAAAGUCACACAAACCGG

These results are taken from the RNAGym collection of RNA variant scans (doi:10.1093/molbev/msab373).

This data set covers variants of B1. Nature of the data set: reverse-splicing fitness (ratio to wild type); higher = more active; in vitro selection; Mg2+ level not given. The method in brief:
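An in vitro group I ribozyme library with randomized positions was T7-transcribed and gel-purified. In triplicate, 10 pmol RNA in EPPS pH 7.5 was reacted with 50 pmoles of a 30-nt RNA substrate for 1 h at 37 °C across several added MgCl2 levels (1–48 mM), then stopped with EDTA. Products were reverse transcribed from a substrate-complementary primer, PCR-amplified and sequenced (HiSeq 4000). Fitness is a variant's read proportion after selection over that before, normalised to wild type.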
For GUGCCUUGCGCCGGGAAACCACGCAAGGGAUGGUGUCAAAUUCGGCGAAACCUAAGCGCCCGCCCGGGCGUAUGGCAACGCAGAGCCAAGCUUCGGCGCCUGCGCCGAUGUAGGUGUAGUGACUAGACGGCACCCACCUAAGGCUAACGGUAUGGUGAAGGCAUAGUCCAGGGAGAGGCGAAAGUCACACAAACCGG [C82A A111U A120U A145U C150G U176A], the reverse-splicing fitness came to 0.00344.

On to GUGCCUUGCGCCGGGAAACCACGCAAGGGAUGGUGUCAAAUUCGGCGAAACCUAAGCGCCCGCCCGGGCGUAUGGCAACGCGGAGCCAAGCUUCGGCGCCUGCGCCGAUGCAGGUGUAGGGACUAGACGGCACCCACCUAAGGCAAACGUUAUGGUGAAGGCAUAGUCAAGGGAGUGGCGAAAGUCACACAAACCGG [C82G A111C A120G C150U C169A], for which the reverse-splicing fitness amounted to 0.0111.

GUGCCUUGCGCCGGGAAACCACGCAAGGGAUGGUGUCAAAUUCGGCGAAACCUAAGCGCCCGCCCGGGCGUAUGGCAACGCUGAGCCAAGCUUCGGCGCCUGCGCCGAUGCAGGUGUAGGGACUAGACGGCACCCACCUAAGGCAAACGUUAUGGUGAAGGCAUAGUCUAGGGAGUGGCGAAAGUCACACAAACCGG [C82U A111C A120G C150U C169U]: the reverse-splicing fitness is 0.00841.

GUGCCUUGCGCCGGGAAACCACGCAAGGGAUGGUGUCAAAUUCGGCGAAACCUAAGCGCCCGCCCGGGCGUAUGGCAACGCAGAGCCAAGCUUCGGCGCCUGCGCCGAUGAAGGUGUAGGGACUAGACGGCACCCACCUAAGGCGAACGGUAUGGUGAAGGCAUAGUCGAGGGAGGGGCGAAAGUCACACAAACCGG [C82A A120G A145G C150G C169G U176G]: the reverse-splicing fitness amounted to 0.00587.

Turning to GUGCCUUGCGCCGGGAAACCACGCAAGGGAUGGUGUCAAAUUCGGCGAAACCUAAGCGCCCGCCCGGGCGUAUGGCAACGCUGAGCCAAGCUUCGGCGCCUGCGCCGAUGUAGGUGUAGUGACUAGACGGCACCCACCUAAGGCAAACGAUAUGGUGAAGGCAUAGUCCAGGGAGGGGCGAAAGUCACACAAACCGG [C82U A111U A120U C150A U176G], the reverse-splicing fitness came to 0.00299.

Regarding GUGCCUUGCGCCGGGAAACCACGCAAGGGAUGGUGUCAAAUUCGGCGAAACCUAAGCGCCCGCCCGGGCGUAUGGCAACGCCGAGCCAAGCUUCGGCGCCUGCGCCGAUGUAGGUGUAGCGACUAGACGGCACCCACCUAAGGCGAACGUUAUGGUGAAGGCAUAGUCAAGGGAGUGGCGAAAGUCACACAAACCGG [A111U A120C A145G C150U C169A], the reverse-splicing fitness stood at 0.0113.

For the variant GUGCCUUGCGCCGGGAAACCACGCAAGGGAUGGUGUCAAAUUCGGCGAAACCUAAGCGCCCGCCCGGGCGUAUGGCAACGCAGAGCCAAGCUUCGGCGCCUGCGCCGAUGCAGGUGUAGCGACUAGACGGCACCCACCUAAGGCGAACGUUAUGGUGAAGGCAUAGUCUAGGGAGUGGCGAAAGUCACACAAACCGG [C82A A111C A120C A145G C150U C169U], the reverse-splicing fitness came out at 0.0133.

Regarding GUGCCUUGCGCCGGGAAACCACGCAAGGGAUGGUGUCAAAUUCGGCGAAACCUAAGCGCCCGCCCGGGCGUAUGGCAACGCGGAGCCAAGCUUCGGCGCCUGCGCCGAUGCAGGUGUAGAGACUAGACGGCACCCACCUAAGGCUAACGUUAUGGUGAAGGCAUAGUCCAGGGAGCGGCGAAAGUCACACAAACCGG [C82G A111C A145U C150U U176C], the reverse-splicing fitness was determined as 0.0883.

Consider GUGCCUUGCGCCGGGAAACCACGCAAGGGAUGGUGUCAAAUUCGGCGAAACCUAAGCGCCCGCCCGGGCGUAUGGCAACGCCGAGCCAAGCUUCGGCGCCUGCGCCGAUGGAGGUGUAGCGACUAGACGGCACCCACCUAAGGCCAACGCUAUGGUGAAGGCAUAGUCUAGGGAGUGGCGAAAGUCACACAAACCGG [A111G A120C A145C C169U], for which the reverse-splicing fitness amounted to 0.223.

GUGCCUUGCGCCGGGAAACCACGCAAGGGAUGGUGUCAAAUUCGGCGAAACCUAAGCGCCCGCCCGGGCGUAUGGCAACGCCGAGCCAAGCUUCGGCGCCUGCGCCGAUGCAGGUGUAGUGACUAGACGGCACCCACCUAAGGCAAACGAUAUGGUGAAGGCAUAGUCUAGGGAGAGGCGAAAGUCACACAAACCGG [A111C A120U C150A C169U U176A]: the reverse-splicing fitness came to 0.00902.

Turning to GUGCCUUGCGCCGGGAAACCACGCAAGGGAUGGUGUCAAAUUCGGCGAAACCUAAGCGCCCGCCCGGGCGUAUGGCAACGCAGAGCCAAGCUUCGGCGCCUGCGCCGAUGUAGGUGUAGUGACUAGACGGCACCCACCUAAGGCGAACGGUAUGGUGAAGGCAUAGUCUAGGGAGGGGCGAAAGUCACACAAACCGG [C82A A111U A120U A145G C150G C169U U176G], the reverse-splicing fitness came out at 0.00513.

Take GUGCCUUGCGCCGGGAAACCACGCAAGGGAUGGUGUCAAAUUCGGCGAAACCUAAGCGCCCGCCCGGGCGUAUGGCAACGCCGAGCCAAGCUUCGGCGCCUGCGCCGAUGGAGGUGUAGGGACUAGACGGCACCCACCUAAGGCGAACGAUAUGGUGAAGGCAUAGUCAAGGGAGAGGCGAAAGUCACACAAACCGG [A111G A120G A145G C150A C169A U176A]: the reverse-splicing fitness was determined as 0.0193.

Regarding GUGCCUUGCGCCGGGAAACCACGCAAGGGAUGGUGUCAAAUUCGGCGAAACCUAAGCGCCCGCCCGGGCGUAUGGCAACGCCGAGCCAAGCUUCGGCGCCUGCGCCGAUGGAGGUGUAGGGACUAGACGGCACCCACCUAAGGCCAACGCUAUGGUGAAGGCAUAGUCAAGGGAGCGGCGAAAGUCACACAAACCGG [A111G A120G A145C C169A U176C], the reverse-splicing fitness came out at 0.0567.

With GUGCCUUGCGCCGGGAAACCACGCAAGGGAUGGUGUCAAAUUCGGCGAAACCUAAGCGCCCGCCCGGGCGUAUGGCAACGCUGAGCCAAGCUUCGGCGCCUGCGCCGAUGCAGGUGUAGGGACUAGACGGCACCCACCUAAGGCUAACGAUAUGGUGAAGGCAUAGUCCAGGGAGCGGCGAAAGUCACACAAACCGG [C82U A111C A120G A145U C150A U176C], the reverse-splicing fitness came to 0.0144.

GUGCCUUGCGCCGGGAAACCACGCAAGGGAUGGUGUCAAAUUCGGCGAAACCUAAGCGCCCGCCCGGGCGUAUGGCAACGCCGAGCCAAGCUUCGGCGCCUGCGCCGAUGUAGGUGUAGGGACUAGACGGCACCCACCUAAGGCUAACGUUAUGGUGAAGGCAUAGUCAAGGGAGCGGCGAAAGUCACACAAACCGG [A111U A120G A145U C150U C169A U176C]: the reverse-splicing fitness was 0.0207.
